Reference: patent publication US20250002610A1 (Genmab, published 2025)

Biological target: T1, human FAPα (Fibroblast activation protein alpha), cell surface expressed (human, UniProt Q12884 1-760)
T1 construct: Endogenous on human lung fibroblasts and CAFs
T1 sequence: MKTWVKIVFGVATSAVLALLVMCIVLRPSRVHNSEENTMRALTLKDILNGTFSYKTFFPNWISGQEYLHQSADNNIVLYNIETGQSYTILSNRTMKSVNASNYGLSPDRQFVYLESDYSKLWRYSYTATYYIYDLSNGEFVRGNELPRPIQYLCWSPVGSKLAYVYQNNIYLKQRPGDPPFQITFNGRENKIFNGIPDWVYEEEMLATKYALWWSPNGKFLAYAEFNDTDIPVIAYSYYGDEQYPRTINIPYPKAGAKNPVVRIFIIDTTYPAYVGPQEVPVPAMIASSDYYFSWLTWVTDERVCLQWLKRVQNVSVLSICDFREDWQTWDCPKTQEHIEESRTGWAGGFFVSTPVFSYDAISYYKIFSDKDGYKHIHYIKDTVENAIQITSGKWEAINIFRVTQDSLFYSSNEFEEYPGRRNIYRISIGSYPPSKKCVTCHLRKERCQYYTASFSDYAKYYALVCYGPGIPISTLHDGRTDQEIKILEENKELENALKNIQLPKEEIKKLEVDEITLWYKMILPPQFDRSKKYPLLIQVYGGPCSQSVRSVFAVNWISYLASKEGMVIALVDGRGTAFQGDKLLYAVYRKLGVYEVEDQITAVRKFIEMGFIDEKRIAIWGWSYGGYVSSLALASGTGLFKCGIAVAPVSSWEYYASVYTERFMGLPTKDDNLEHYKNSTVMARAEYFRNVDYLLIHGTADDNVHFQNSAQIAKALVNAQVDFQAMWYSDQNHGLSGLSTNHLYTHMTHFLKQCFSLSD
Assay: flow cytometry, human lung fibroblasts, n = 1
Description: Human lung fibroblasts and CAFs (50,000 cells/well) were seeded in 96-Well round bottom plates (Greiner Bio-one, Cat #650101). Antibody dilutions were prepared using fluorescence-activated cell sorting (FACS) buffer, consisting of phosphate buffer saline (PBS, Lonza, Cat #BE17-517Q)+1% Bovine Serum Albumin (BSA, Roche, Cat #10735086001)+0.02% Sodium Azide (Bio-World, Cat #41920044-3). Plates were centrifuged, supernatant was removed, cells were resuspended in 50 μL of human Fc Block (BD, Cat #564220, diluted 1:100 in FACS buffer) and 50 μL of viability stain TO-PRO-3 Iodide (Thermo Fisher, Cat #T3605, diluted 1: 25,000 in FACS buffer), and incubated for 15 min at 4° C. Plates were washed three times with FACS buffer. Plates were centrifuged, supernatant was removed, cells were resuspended in 50 μL of antibody dilutions (concentration range 90-0.0005 μg/mL, three-fold dilution steps using FACS buffer) of BisG1-FAPα-FERL/DR4-FERR, BisG1-FAPα-FERL/b12-FERR, BisG1-b12-FERL/b12-FERR (top six concentrations only for CAFs culture) or IgG1-FAPα-FERL (top four concentrations only for CAFs culture) and incubated for 30 min at 4° C. Cells were washed three times with FACS buffer and resuspended in 50 μL of Fluorescein isothiocyanate (FITC)-labeled polyclonal antibody goat anti-mouse IgG1 (Jackson Immuno Research, Cat #109-096-097, diluted 1:100 in FACS buffer). After 30 min incubation at 4° C., cells were washed twice with FACS buffer and resuspended in FACS buffer. Antibody binding to viable cells (TO-PRO-3 negative) was analyzed by flow cytometry on a FACSCelesta™ (BD biosciences) and data were processed using FlowJo_v10.8.1 (FlowJo LLC). Geomean fluorescence intensity, gMFI, was determined and visualized using GraphPad Prism. Binding curves were analyzed using nonlinear regression analysis. The concentration (pg/mL) at which 50% of the maximal effect was observed (EC₅₀) was derived from the fitted curves.
Binding of FAPα-targeting monoclonal antibody clones, IgG1-FAPα-FEAL and IgG1-FAP5-FEAL, and bispecific antibodies carrying a binding arm derived from the two FAPα-binding clones (BisG1-FAPα-FEAL/b12-FEAR and BisG1-FAP5-FEAL/b12-FEAR) to human lung fibroblasts, which endogenously express FAPα, was compared and analyzed by flow cytometry.

B1: BisG1-FAPα-FEAL/b12-FEAR (bispecific antibody, human IgG1, kappa)
heavy 1: EVQLLESGGGLVQPGGSPRLSCEASGFTFSSYALSWVRQAPGKGLEWVSAISGSGGGRYYADSVKGRFTISRDNSKNTLFLQMNSLRAEDTAVYYCAKEGYSSSGTYWDHWGQGTLVTVSSASTKGPSVFPLAPSSKSTSGGTAALGCLVKDYFPEPVTVSWNSGALTSGVHTFPAVLQSSGLYSLSSVVTVPSSSLGTQTYICNVNHKPSNTKVDKRVEPKSCDKTHTCPPCPAPEFEGGPSVFLFPPKPKDTLMISRTPEVTCVVVAVSHEDPEVKFNWYVDGVEVHNAKTKPREEQYNSTYRVVSVLTVLHQDWLNGKEYKCKVSNKALPAPIEKTISKAKGQPREPQVYTLPPSREEMTKNQVSLTCLVKGFYPSDIAVEWESNGQPENNYKTTPPVLDSDGSFLLYSKLTVDKSRWQQGNVFSCSVMHEALHNHYTQKSLSLSPG
light 1: AIQMTQSPSSVSASVGDRVTITCRASQGVSSWLAWYQQKPGRAPKLLIYVASTLQSGVPSRFSGSGSGTDFTLTINSLQPEDFATYYCQQANSFPPTFGQGTRLEMKRTVAAPSVFIFPPSDEQLKSGTASVVCLLNNFYPREAKVQWKVDNALQSGNSQESVTEQDSKDSTYSLSSTLTLSKADYEKHKVYACEVTHQGLSSPVTKSFNRGEC
heavy 2: QVQLVQSGAEVKKPGASVKVSCQASGYRFSNFVIHWVRQAPGQRFEWMGWINPYNGNKEFSAKFQDRVTFTADTSANTAYMELRSLRSADTAVYYCARVGPYSWDDSPQDNYYMDVWGKGTTVIVSSASTKGPSVFPLAPSSKSTSGGTAALGCLVKDYFPEPVTVSWNSGALTSGVHTFPAVLQSSGLYSLSSVVTVPSSSLGTQTYICNVNHKPSNTKVDKRVEPKSCDKTHTCPPCPAPEFEGGPSVFLFPPKPKDTLMISRTPEVTCVVVAVSHEDPEVKFNWYVDGVEVHNAKTKPREEQYNSTYRVVSVLTVLHQDWLNGKEYKCKVSNKALPAPIEKTISKAKGQPREPQVYTLPPSREEMTKNQVSLTCLVKGFYPSDIAVEWESNGQPENNYKTTPPVLDSDGSFFLYSRLTVDKSRWQQGNVFSCSVMHEALHNHYTQKSLSLSPG
light 2: EIVLTQSPGTLSLSPGERATFSCRSSHSIRSRRVAWYQHKPGQAPRLVIHGVSNRASGISDRFSGSGSGTDFTLTITRVEPEDFALYYCQVYGASSYTFGQGTKLERKRTVAAPSVFIFPPSDEQLKSGTASVVCLLNNFYPREAKVQWKVDNALQSGNSQESVTEQDSKDSTYSLSSTLTLSKADYEKHKVYACEVTHQGLSSPVTKSFNRGEC
notes: Fab-arm exchange of IgG1-FAPα-FEAL and IgG1-b12-FEAR
**Q.** With B1 as the binder, how does the EC50 read?
**A.** 0.048 µg/mL
